The text below walks through data of patent publication US20220153796A1 (IMMATICS BIOTECHNOLOGIES, published 2022).

Some results are limits rather than exact numbers.

Holding throughout (test): UV peptide exchange ELISA
On the technique in general: In an ELISA, binding on a coated surface is turned into a signal by an enzyme label.

One assay addresses HLA-A*01 (human).
Another assay concerns the target HLA-B*07 (human). The source says: (§1) Candidate peptides for T cell based therapies according to the present invention were further tested for their MHC binding capacity (affinity). The individual peptide-MHC complexes were produced by UV-ligand exchange, where a UV-sensitive peptide is cleaved upon UV-irradiation, and exchanged with the peptide of interest as analyzed. Only peptide candidates that can effectively bind and stabilize the peptide-receptive MHC molecules prevent dissociation of the MHC complexes. To determine the yield of the exchange reaction, an ELISA was performed based on the detection of the light chain (β2m) of stabilized MHC complexes. The assay was performed as generally described in Rodenko et al. (Rodenko et al., 2006).
(§2) 96 well MAXISorp plates (NUNC) were coated over night with 2 ug/ml streptavidin in PBS at room temperature, washed 4× and blocked for 1 h at 37° C. in 2% BSA containing blocking buffer. […] Peptide-MHC monomers of the UV-exchange reaction were diluted 100-fold in blocking buffer. Samples were incubated for 1 h at 37° C., washed four times, incubated with 2 ug/ml HRP conjugated anti-β2m for 1h at 37° C., washed again and detected with TMB solution that is stopped with […]. Absorption was measured at 450 nm.

The target of the next assay is HLA-A*03 (human).
From the text: as §1, §2

The target of the next assay is HLA-A*02 (human).

The molecule ASEQQALHTVQY displayed a peptide exchange yield with HLA-A*01 greater than 75%.

As to SAYPQRLEI, the peptide exchange yield with HLA-B*07 was in the range of 10 to 20%.

In the assay with HLA-A*01, VTDGSLYEGVAY yielded a peptide exchange yield greater than 75%.

Consider ECDMAFHIY, for which the peptide exchange yield with HLA-A*01 was greater than 75%.

Take KLYAWELAF: the peptide exchange yield in the assay with HLA-A*03 was 50 to 75%.

In the assay with HLA-A*03, KTLVAELLILK registered a peptide exchange yield of 50 to 75%.

Regarding LMAFFLAVV, the peptide exchange yield with HLA-A*02 lay within 20 to 50%.

As for ATDLVVLDRY, the peptide exchange yield in the assay with HLA-A*01 is greater than 75%.

For the molecule ALCLLLHLL, the peptide exchange yield with HLA-A*02 was in the range of 10 to 20%.

In the case of WMFFVINY, the peptide exchange yield in the assay with HLA-A*01 lay within 10 to 20%.

In the assay with HLA-A*01, VVDSVGGYLY gave a peptide exchange yield greater than 75%.

For the molecule NTDNNLAVY, the peptide exchange yield with HLA-A*01 was greater than 75%.

Molecule VVADTKMIEY showed a peptide exchange yield in the assay with HLA-A*01 of 10 to 20%.
